Measurements as given in US11078245B2, “Colon and pancreas cancer peptidomimetics” (PRECISION BIOLOGICS, INC., priority 2010, dated 2021).

System: NEO-101 antibody
Assay: Immunofluorescence of 293T cells transfected with MUC5AC truncation constructs
Assay type: cell-based
Conditions: 2 μg/ml NEO-101 antibody
Procedure: Six truncation constructs were made representing C-terminal truncations of the full-length MUC5AC protein (SEQ ID NO: 36).
293T cells were cultured on FBS coated cover slips for 24 hours. Cells were transiently transfected with 2 μg of MUC5AC constructs of Table 8 with LIPOFECTAMINE®. Cells were grown for about 72 hours, fixed with about 4% PFA in PBS, washed with PBS, permeabilized with about 0.2% […] in PBS and washed with PBS. Cells were then blocked with about 1% BSA in PBS, and about 2 μg/ml NEO-101 antibody was added to sample wells and about 2 μg/ml of an Isotype control was added for 1 hour at room temp. Cells were washed with PBS and second anti human-FITC antibody (1:500) was added to all wells and to the second antibody control wells. Cells were washed and mounted on slides with DAPI hard mount. Cover slides were allowed to sit over night at about 4° C. Slides were visualized with a Nikon Eclipse Ti microscope with an Andor camera. At least 3 random fields were counted per transfection.

Molecule | Binds NPC-1?
Construct 1-289: C-terminal truncation construct of MUC5AC, SEQ ID NO: 49 (protein, MUC5AC truncation construct (289)) ATMSVGRRKLALLWALALALACTTTHSQPVTRDCHLRCTWTKWFDVDFPSPGPHGGDKETYNNIIRSGEKICRRPEEITRLQCRAESHPEVSIEHLGQVVQCSREEGLVCRNQDQQGPFKMCLNYEVRVLCCETPKGCPVTSTPVTAPSTPSGRATSPTQSTSSWQKSRTTTLVTTSTTSTPQTSTTSAPTTSTTSAPTTSTTSAPTTSTTSTPQTSISSAPTSSTTSAPTSSTISARTTSIISAPTTSTTSSPTTSTTSATTTSTTSAPTSSTTSTPQTSKTSAATSS | binding activity
Construct 1-187: C-terminal truncation construct of MUC5AC, SEQ ID NO: 48 (protein, MUC5AC truncation construct (187)) ATMSVGRRKLALLWALALALACTTTHSQPVTRDCHLRCTWTKWFDVDFPSPGPHGGDKETYNNIIRSGEKICRRPEEITRLQCRAESHPEVSIEHLGQVVQCSREEGLVCRNQDQQGPFKMCLNYEVRVLCCETPKGCPVTSTPVTAPSTPSGRATSPTQSTSSWQKSRTTTLVTTSTTSTPQTSTT | binding activity
Construct 1-85: C-terminal truncation construct of MUC5AC, SEQ ID NO: 45 (protein, MUC5AC truncation construct (85)) ATMSVGRRKLALLWALALALACTTTHSQPVTRDCHLRCTWTKWFDVDFPSPGPHGGDKETYNNIIRSGEKICRRPEEITRLQCRA | no binding
1-85 (protein, MUC5AC truncation construct (85)) ATMSVGRRKLALLWALALALACTTTHSQPVTRDCHLRCTWTKWFDVDFPSPGPHGGDKETYNNIIRSGEKICRRPEEITRLQCRA | No
Construct 1-338: C-terminal truncation construct of MUC5AC, SEQ ID NO: 50 (protein, MUC5AC truncation construct (338)) ATMSVGRRKLALLWALALALACTTTHSQPVTRDCHLRCTWTKWFDVDFPSPGPHGGDKETYNNIIRSGEKICRRPEEITRLQCRAESHPEVSIEHLGQVVQCSREEGLVCRNQDQQGPFKMCLNYEVRVLCCETPKGCPVTSTPVTAPSTPSGRATSPTQSTSSWQKSRTTTLVTTSTTSTPQTSTTSAPTTSTTSAPTTSTTSAPTTSTTSTPQTSISSAPTSSTTSAPTSSTISARTTSIISAPTTSTTSSPTTSTTSATTTSTTSAPTSSTTSTPQTSKTSAATSSTTSSSGTTPSPVTTTSTASVSKTSTSHVSVSKTTHSQPVTRCTHHHHHH | binding activity
1-338 (protein, MUC5AC truncation construct (338)) ATMSVGRRKLALLWALALALACTTTHSQPVTRDCHLRCTWTKWFDVDFPSPGPHGGDKETYNNIIRSGEKICRRPEEITRLQCRAESHPEVSIEHLGQVVQCSREEGLVCRNQDQQGPFKMCLNYEVRVLCCETPKGCPVTSTPVTAPSTPSGRATSPTQSTSSWQKSRTTTLVTTSTTSTPQTSTTSAPTTSTTSAPTTSTTSAPTTSTTSTPQTSISSAPTSSTTSAPTSSTISARTTSIISAPTTSTTSSPTTSTTSATTTSTTSAPTSSTTSTPQTSKTSAATSSTTSSSGTTPSPVTTTSTASVSKTSTSHVSVSKTTHSQPVTRCTHHHHHH | Yes
